Patent US20210246166A1 (Bayer, published 2021)
Bridge positions count the residues as written; N and C are the ends. Square brackets hold non-standard residues; d marks the D form. Ends that are not written are not given here. Nva(3-Et) = CCC(CC)[C@H](N)C(=O)O; NMeI = CC[C@H](C)[C@H](NC)C(=O)O; tBuAla = CC(C)(C)C[C@H](N)C(=O)O; Chg = N[C@H](C(=O)O)C1CCCCC1; NMeC = CN[C@@H](CS)C(=O)O; NMeA = CN[C@@H](C)C(=O)O; Orn = NCCC[C@H](N)C(=O)O; Nva = CCC[C@H](N)C(=O)O; Abu = CC[C@H](N)C(=O)O; Sar = CNCC(=O)O

B1: Example 175: ((N-Me)A)-IC+SRS-((tBu)A)-PPI-((N-Me)C)+IPD-NH2 (peptide)
peptide: [NMeA]ICSRS[tBuAla]PPI[NMeC]IPD-NH2
modifications: disulfide 3-11; N-terminus assumed
SMILES: CC[C@H](C)[C@H](NC(=O)[C@H](C)NC)C(=O)N[C@H]1CSSC[C@@H](C(=O)N[C@H](C(=O)N2CCC[C@H]2C(=O)N[C@@H](CC(=O)O)C(N)=O)[C@@H](C)CC)N(C)C(=O)[C@H]([C@@H](C)CC)NC(=O)[C@@H]2CCCN2C(=O)[C@@H]2CCCN2C(=O)[C@H](CC(C)(C)C)NC(=O)[C@H](CO)NC(=O)[C@H](CCCNC(=N)N)NC(=O)[C@H](CO)NC1=O
B2: Example 181: FIC+SRS-((tBu)A)-PPI-((N-Me)C)+I-NH2 (peptide)
peptide: FICSRS[tBuAla]PPI[NMeC]I-NH2
modifications: disulfide 3-11; N-terminus assumed
SMILES: CC[C@H](C)[C@H](NC(=O)[C@@H]1CSSC[C@H](NC(=O)[C@@H](NC(=O)[C@@H](N)Cc2ccccc2)[C@@H](C)CC)C(=O)N[C@@H](CO)C(=O)N[C@@H](CCCNC(=N)N)C(=O)N[C@@H](CO)C(=O)N[C@@H](CC(C)(C)C)C(=O)N2CCC[C@H]2C(=O)N2CCC[C@H]2C(=O)N[C@@H]([C@@H](C)CC)C(=O)N1C)C(N)=O
B3: Example 182: YIC+SRS-((tBu)A)-PPI-((N-Me)C)+I-NH2 (peptide)
peptide: YICSRS[tBuAla]PPI[NMeC]I-NH2
modifications: disulfide 3-11; N-terminus assumed
SMILES: CC[C@H](C)[C@H](NC(=O)[C@@H]1CSSC[C@H](NC(=O)[C@@H](NC(=O)[C@@H](N)Cc2ccc(O)cc2)[C@@H](C)CC)C(=O)N[C@@H](CO)C(=O)N[C@@H](CCCNC(=N)N)C(=O)N[C@@H](CO)C(=O)N[C@@H](CC(C)(C)C)C(=O)N2CCC[C@H]2C(=O)N2CCC[C@H]2C(=O)N[C@@H]([C@@H](C)CC)C(=O)N1C)C(N)=O
B4: Example 186: (Orn)-IC+SRS-((tBu)A)-PPIC+I-NH2 (peptide)
peptide: [Orn]ICSRS[tBuAla]PPICI-NH2
modifications: disulfide 3-11; N-terminus assumed
SMILES: CC[C@H](C)[C@H](NC(=O)[C@@H]1CSSC[C@H](NC(=O)[C@@H](NC(=O)[C@@H](N)CCCN)[C@@H](C)CC)C(=O)N[C@@H](CO)C(=O)N[C@@H](CCCNC(=N)N)C(=O)N[C@@H](CO)C(=O)N[C@@H](CC(C)(C)C)C(=O)N2CCC[C@H]2C(=O)N2CCC[C@H]2C(=O)N[C@@H]([C@@H](C)CC)C(=O)N1)C(N)=O
B5: Example 209: AIC+SRSLPP-((S)-2-amino-3-ethyl-pentanoic acid)-C+IPD-NH2 (peptide)
peptide: AICSRSLPP[Nva(3-Et)]CIPD-NH2
modifications: disulfide 3-11; N-terminus assumed
SMILES: CCC(CC)[C@@H]1NC(=O)[C@@H]2CCCN2C(=O)[C@@H]2CCCN2C(=O)[C@H](CC(C)C)NC(=O)[C@H](CO)NC(=O)[C@H](CCCNC(=N)N)NC(=O)[C@H](CO)NC(=O)[C@@H](NC(=O)[C@@H](NC(=O)[C@H](C)N)[C@@H](C)CC)CSSC[C@@H](C(=O)N[C@H](C(=O)N2CCC[C@H]2C(=O)N[C@@H](CC(=O)O)C(N)=O)[C@@H](C)CC)NC1=O
B6: Example 210: AIC+SRS-((tBu)A)-PPIC+IDD-OH (peptide)
peptide: AICSRS[tBuAla]PPICIDD-OH
modifications: disulfide 3-11; N-terminus assumed
SMILES: CC[C@H](C)[C@H](NC(=O)[C@H](C)N)C(=O)N[C@H]1CSSC[C@@H](C(=O)N[C@H](C(=O)N[C@@H](CC(=O)O)C(=O)N[C@@H](CC(=O)O)C(=O)O)[C@@H](C)CC)NC(=O)[C@H]([C@@H](C)CC)NC(=O)[C@@H]2CCCN2C(=O)[C@@H]2CCCN2C(=O)[C@H](CC(C)(C)C)NC(=O)[C@H](CO)NC(=O)[C@H](CCCNC(=N)N)NC(=O)[C@H](CO)NC1=O
B7: Example 216: (Nva)-IC+SRSLPPIC+IPD-NH2 (peptide)
peptide: [Nva]ICSRSLPPICIPD-NH2
modifications: disulfide 3-11; N-terminus assumed
SMILES: CCC[C@H](N)C(=O)N[C@H](C(=O)N[C@H]1CSSC[C@@H](C(=O)N[C@H](C(=O)N2CCC[C@H]2C(=O)N[C@@H](CC(=O)O)C(N)=O)[C@@H](C)CC)NC(=O)[C@H]([C@@H](C)CC)NC(=O)[C@@H]2CCCN2C(=O)[C@@H]2CCCN2C(=O)[C@H](CC(C)C)NC(=O)[C@H](CO)NC(=O)[C@H](CCCNC(=N)N)NC(=O)[C@H](CO)NC1=O)[C@@H](C)CC
B8: Example 222: AIC+SRSLPP-(Chg)-C+IPD-OH (peptide)
peptide: AICSRSLPP[Chg]CIPD-OH
modifications: disulfide 3-11; N-terminus assumed
SMILES: CC[C@H](C)[C@H](NC(=O)[C@H](C)N)C(=O)N[C@H]1CSSC[C@@H](C(=O)N[C@H](C(=O)N2CCC[C@H]2C(=O)N[C@@H](CC(=O)O)C(=O)O)[C@@H](C)CC)NC(=O)[C@H](C2CCCCC2)NC(=O)[C@@H]2CCCN2C(=O)[C@@H]2CCCN2C(=O)[C@H](CC(C)C)NC(=O)[C@H](CO)NC(=O)[C@H](CCCNC(=N)N)NC(=O)[C@H](CO)NC1=O
B9: Example 223: WIC+SRS-((tBu)A)-PPI-((N-Me)C)+I-NH2 (peptide)
peptide: WICSRS[tBuAla]PPI[NMeC]I-NH2
modifications: disulfide 3-11; N-terminus assumed
SMILES: CC[C@H](C)[C@H](NC(=O)[C@@H]1CSSC[C@H](NC(=O)[C@@H](NC(=O)[C@@H](N)Cc2c[nH]c3ccccc23)[C@@H](C)CC)C(=O)N[C@@H](CO)C(=O)N[C@@H](CCCNC(=N)N)C(=O)N[C@@H](CO)C(=O)N[C@@H](CC(C)(C)C)C(=O)N2CCC[C@H]2C(=O)N2CCC[C@H]2C(=O)N[C@@H]([C@@H](C)CC)C(=O)N1C)C(N)=O
B10: Example 225: (Orn)-IC+SRSLPP-(Chg)-C+IPD-OH (peptide)
peptide: [Orn]ICSRSLPP[Chg]CIPD-OH
modifications: disulfide 3-11; N-terminus assumed
SMILES: CC[C@H](C)[C@H](NC(=O)[C@@H](N)CCCN)C(=O)N[C@H]1CSSC[C@@H](C(=O)N[C@H](C(=O)N2CCC[C@H]2C(=O)N[C@@H](CC(=O)O)C(=O)O)[C@@H](C)CC)NC(=O)[C@H](C2CCCCC2)NC(=O)[C@@H]2CCCN2C(=O)[C@@H]2CCCN2C(=O)[C@H](CC(C)C)NC(=O)[C@H](CO)NC(=O)[C@H](CCCNC(=N)N)NC(=O)[C@H](CO)NC1=O
B11: Example 230: (Abu)-IC+SRSLPPIC+IPD-NH2 (peptide)
peptide: [Abu]ICSRSLPPICIPD-NH2
modifications: disulfide 3-11; N-terminus assumed
SMILES: CC[C@H](N)C(=O)N[C@H](C(=O)N[C@H]1CSSC[C@@H](C(=O)N[C@H](C(=O)N2CCC[C@H]2C(=O)N[C@@H](CC(=O)O)C(N)=O)[C@@H](C)CC)NC(=O)[C@H]([C@@H](C)CC)NC(=O)[C@@H]2CCCN2C(=O)[C@@H]2CCCN2C(=O)[C@H](CC(C)C)NC(=O)[C@H](CO)NC(=O)[C@H](CCCNC(=N)N)NC(=O)[C@H](CO)NC1=O)[C@@H](C)CC

target: T1, recombinant rat MASP1 active protease (amino acids 302-704, C-terminal His Tag) (rat, UniProt Q8CHN8 302-704); test: cell-based or functional assay
T1 sequence: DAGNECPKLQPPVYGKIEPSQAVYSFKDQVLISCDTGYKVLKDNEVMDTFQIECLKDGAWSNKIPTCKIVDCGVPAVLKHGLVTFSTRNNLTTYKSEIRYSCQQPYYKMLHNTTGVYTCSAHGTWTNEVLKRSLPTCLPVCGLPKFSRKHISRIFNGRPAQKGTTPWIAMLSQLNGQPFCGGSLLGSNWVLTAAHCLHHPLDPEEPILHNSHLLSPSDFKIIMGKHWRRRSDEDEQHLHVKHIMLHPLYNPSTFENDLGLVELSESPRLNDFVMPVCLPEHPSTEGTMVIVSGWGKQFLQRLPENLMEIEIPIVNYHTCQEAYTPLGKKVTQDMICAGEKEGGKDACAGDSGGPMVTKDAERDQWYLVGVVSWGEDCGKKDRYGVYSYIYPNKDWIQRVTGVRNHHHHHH

| Binder | rat MASP1 IC50 |
| --- | --- |
| B1 | 28 nM |
| B2 | 130 nM |
| B3 | 13 nM |
| B4 | 380 nM |
| G[NMeI]CSRSLPPICIPD-NH2 (disulfide 3-11; also: HCl salt) [Example 205: G-((N-Me)I)-C+SRSLPPIC+IPD-NH2 (HCl salt)] | 300 nM |
| B5 | 330 nM |
| B6 | 19 nM |
| B7 | 240 nM |
| B8 | 240 nM |
| B9 | 120 nM |
| B10 | 230 nM |
| [Sar]ICSRSLPPICIPD-NH2 (disulfide 3-11; also: HCl salt) [Example 228: ((N-Me)G)-IC+SRSLPPIC+IPD-NH2 (HCl salt)] | 260 nM |
| B11 | 370 nM |
